Assay results from US12467929.
Each block holds one substance with its values, some of them ahead of it.

How the values were obtained:
[1] = target: recombinant UBE3A protein (Homo sapiens (Human)) (UniProt Q05086); assay: Simoa; capture GTX; SBG 75 pm; UBE3A 4.00 ng/ml
[2] = target: recombinant UBE3A protein (Homo sapiens (Human)) (UniProt Q05086); assay: Simoa; capture GTX; SBG 100 pm; UBE3A 20.0 ng/ml
[3] = target: recombinant UBE3A protein (Homo sapiens (Human)) (UniProt Q05086); assay: Simoa; capture GTX; 3E5 0.2 ug/ml; UBE3A 20.0 ng/ml
[4] = target: recombinant UBE3A protein (Homo sapiens (Human)) (UniProt Q05086); assay: Simoa; capture GTX; 3E5 0.2 ug/ml; UBE3A 0.800 ng/ml
[5] = target: recombinant UBE3A protein (Homo sapiens (Human)) (UniProt Q05086); assay: Simoa; capture GTX; 3E5 0.8 ug/ml; UBE3A 0.800 ng/ml
[6] = target: recombinant UBE3A protein (Homo sapiens (Human)) (UniProt Q05086); assay: Simoa; capture GTX; 3E5 0.4 ug/ml; UBE3A 0.00640 ng/ml
[7] = target: recombinant UBE3A protein (Homo sapiens (Human)) (UniProt Q05086); assay: Simoa head-to-head, Table 11; capture GTX; UBE3A 0.16 ng/ml
[8] = target: recombinant UBE3A protein (Homo sapiens (Human)) (UniProt Q05086); assay: Simoa head-to-head, Table 11; capture GTX; UBE3A 20.0 ng/ml
[9] = target: recombinant UBE3A protein (Homo sapiens (Human)) (UniProt Q05086); assay: Simoa head-to-head, Table 10; capture MS 2F6; UBE3A 100 ng/ml
[10] = target: recombinant UBE3A protein (Homo sapiens (Human)) (UniProt Q05086); assay: Simoa head-to-head, Table 10; capture MS 2F6; UBE3A 500 ng/ml
[11] = target: recombinant UBE3A protein (Homo sapiens (Human)) (UniProt Q05086); assay: Simoa head-to-head, Table 11; capture MS 2F6; UBE3A 20.0 ng/ml
[12] = target: recombinant UBE3A protein (Homo sapiens (Human)) (UniProt Q05086); assay: 3-step Simoa, 120 min bead step; capture GTX; UBE3A 20.0 ng/ml
[13] = target: recombinant UBE3A protein (Homo sapiens (Human)) (UniProt Q05086); assay: 3-step Simoa, 120 min bead step; capture GTX; UBE3A 0.800 ng/ml
[14] = target: recombinant UBE3A protein (Homo sapiens (Human)) (UniProt Q05086); assay: Simoa; capture GTX + helper beads; 3E5 0.2 ug/ml; UBE3A 0.0320 ng/ml
[15] = target: recombinant UBE3A protein (Homo sapiens (Human)) (UniProt Q05086); assay: Simoa; capture GTX, no helper beads; 3E5 0.1 ug/ml; UBE3A 4.00 ng/ml
[16] = target: recombinant UBE3A protein (Homo sapiens (Human)) (UniProt Q05086); assay: Simoa; capture GTX, no helper beads; 3E5 0.2 ug/ml; UBE3A 0.160 ng/ml
[17] = target: recombinant UBE3A protein (Homo sapiens (Human)) (UniProt Q05086); assay: Simoa; capture GTX, no helper beads; 3E5 0.4 ug/ml; UBE3A 0.0320 ng/ml
[18] = target: recombinant UBE3A protein (Homo sapiens (Human)) (UniProt Q05086); assay: Simoa; capture GTX, no helper beads; 3E5 0.2 ug/ml; UBE3A 0.00640 ng/ml
[19] = target: recombinant UBE3A protein (Homo sapiens (Human)) (UniProt Q05086); assay: 2-step Simoa; capture GTX; UBE3A 500 ng/ml
[20] = target: recombinant UBE3A protein (Homo sapiens (Human)) (UniProt Q05086); assay: 2-step Simoa; capture GTX; UBE3A 1.95 ng/ml
[21] = target: recombinant UBE3A protein (Homo sapiens (Human)) (UniProt Q05086); assay: 3-step Simoa; capture GTX; UBE3A 0.122 ng/ml

Sequence of UniProt Q05086 (Q05086 whole entry): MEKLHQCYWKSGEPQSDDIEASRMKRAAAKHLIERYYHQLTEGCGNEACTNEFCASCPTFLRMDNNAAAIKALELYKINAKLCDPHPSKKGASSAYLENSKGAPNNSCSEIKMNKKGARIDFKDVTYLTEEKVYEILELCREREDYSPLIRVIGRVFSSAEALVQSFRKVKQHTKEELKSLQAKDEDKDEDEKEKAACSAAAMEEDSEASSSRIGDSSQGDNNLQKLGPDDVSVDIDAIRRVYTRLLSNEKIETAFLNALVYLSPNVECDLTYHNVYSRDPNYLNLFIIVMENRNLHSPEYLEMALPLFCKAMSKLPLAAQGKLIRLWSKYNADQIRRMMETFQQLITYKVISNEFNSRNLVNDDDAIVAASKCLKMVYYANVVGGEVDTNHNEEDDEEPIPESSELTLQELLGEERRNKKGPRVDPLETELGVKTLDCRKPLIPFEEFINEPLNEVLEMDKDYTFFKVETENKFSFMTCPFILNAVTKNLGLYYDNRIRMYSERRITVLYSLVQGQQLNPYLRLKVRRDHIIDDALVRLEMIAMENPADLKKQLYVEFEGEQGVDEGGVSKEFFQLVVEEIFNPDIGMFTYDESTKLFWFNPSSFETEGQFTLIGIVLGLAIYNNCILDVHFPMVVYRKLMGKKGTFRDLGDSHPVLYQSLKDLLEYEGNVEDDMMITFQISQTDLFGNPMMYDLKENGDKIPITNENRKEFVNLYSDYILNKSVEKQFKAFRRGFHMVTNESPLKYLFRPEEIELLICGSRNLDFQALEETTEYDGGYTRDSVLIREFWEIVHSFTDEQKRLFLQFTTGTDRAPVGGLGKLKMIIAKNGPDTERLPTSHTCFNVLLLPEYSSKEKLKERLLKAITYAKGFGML

- AEB1 [1]: 0.459
- AEB2 [1]: 0.46
- AEB3 [1]: 0.458
- Average AEB [1]: 0.459
- Signal to Background [1]: 105
- AEB1 [2]: 3.96
- AEB2 [2]: 3.97
- AEB3 [2]: 4.1
- Average AEB [2]: 4.01
- Signal to Background [2]: 478
- AEB1 [3]: 6.38
- AEB2 [3]: 6.95
- AEB3 [3]: 6.77
- Average AEB [3]: 6.7
- Signal to Background [3]: 171
- AEB1 [4]: 0.355
- AEB2 [4]: 0.378
- AEB3 [4]: 0.358
- Average AEB [4]: 0.364
- Signal to Background [4]: 9.26
- AEB1 [5]: 0.589
- AEB2 [5]: 0.605
- AEB3 [5]: 0.615
- Average AEB [5]: 0.603
- Signal to Background [5]: 4.92
- AEB1 [6]: 0.0671
- AEB2 [6]: 0.0638
- AEB3 [6]: 0.0865
- Average AEB [6]: 0.0725
- Signal to Background [6]: 1.16
- AEB1 [7]: 0.0288
- AEB2 [7]: 0.0291
- Ave AEB [7]: 0.0289
- Signal to Background [7]: 3.53
- AEB1 [8]: 0.78
- AEB2 [8]: 0.821
- Ave AEB [8]: 0.8
- Signal to Background [8]: 97.8
- AEB1 [9]: 2.71
- AEB2 [9]: 2.88
- Ave AEB [9]: 2.8
- Signal to Background [9]: 207
- AEB1 [10]: 11
- AEB2 [10]: 10.9
- Ave AEB [10]: 10.9
- Signal to Background [10]: 809
- AEB1 [11]: 0.352
- AEB2 [11]: 0.348
- Ave AEB [11]: 0.35
- Signal to Background [11]: 92.5
- AEB1 [12]: 2.8
- AEB2 [12]: 2.88
- Ave AEB [12]: 2.84
- Signal to Background [12]: 1660
- AEB1 [13]: 0.151
- AEB2 [13]: 0.154
- Ave AEB [13]: 0.152
- Signal to Background [13]: 89.4
- AEB1 [14]: 0.0226
- AEB2 [14]: 0.0236
- Average AEB [14]: 0.0231
- Signal to Background [14]: 2.39
- AEB1 [15]: 0.607
- AEB2 [15]: 0.603
- Average AEB [15]: 0.605
- Signal to Background [15]: 106
- AEB1 [16]: 0.0675
- AEB2 [16]: 0.0686
- Average AEB [16]: 0.068
- Signal to Background [16]: 7.03
- AEB1 [17]: 0.0366
- AEB2 [17]: 0.037
- Average AEB [17]: 0.0368
- Signal to Background [17]: 1.88
- AEB2 [18]: 0.012
- Average AEB [18]: 0.012
- Signal to Background [18]: 1.24
Substance: anti-UBE3A antibody 3E5 (SAB1404508-100 ug, Millipore-Sigma)

- AEB1 [19]: 0.303
- AEB2 [19]: 0.308
- Ave AEB [19]: 0.305
- Signal to Background [19]: 93.4
- AEB1 [20]: 0.018
- AEB2 [20]: 0.0187
- Ave AEB [20]: 0.0184
- Signal to Background [20]: 5.62
- AEB1 [21]: 0.0021
- AEB2 [21]: 0.002
- Ave AEB [21]: 0.002
- Signal to Background [21]: 0.624
Substance: NB500-240 (Novus) (antibody)
